Measurements from patent publication EP4775675A1 (Shanghai Hongcheng Biopharmaceutical Co., Ltd., dated 2026).
Read-outs that look alike come from different tables or passages of the source.

Columns and labels:
[1] = biological target: T1, human BDCA-2 on cells (Jurkat-hBDCA-2 cells; human pDCs; human PBMCs) (human, UniProt Q8WTT0 1-213); assay: cell-based or functional assay
T1 sequence (looked up): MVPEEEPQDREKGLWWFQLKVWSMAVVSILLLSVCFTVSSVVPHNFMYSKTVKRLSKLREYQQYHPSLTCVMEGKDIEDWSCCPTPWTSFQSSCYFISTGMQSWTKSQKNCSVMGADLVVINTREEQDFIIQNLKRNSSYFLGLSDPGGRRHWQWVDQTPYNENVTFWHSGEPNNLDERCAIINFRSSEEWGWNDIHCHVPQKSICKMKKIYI

[2] = biological target: T1, human BDCA-2 on cells (Jurkat-hBDCA-2 …); assay: cell-based or functional assay; remark: listed apart in the source
[3] = biological target: T1, human BDCA-2 on cells (Jurkat-hBDCA-2 …); assay: cell-based or functional assay; remark: listed apart in the source
[4] = biological target: T1, human BDCA-2 on cells (Jurkat-hBDCA-2 …); assay: cell-based or functional assay; remark: listed apart in the source
[5] = biological target: T1, human BDCA-2 on cells (Jurkat-hBDCA-2 …); assay: flow cytometry on sorted human pDCs
[6] = biological target: T1, human BDCA-2 on cells (Jurkat-hBDCA-2 …); assay: cell-based or functional assay; remark: listed apart in the source
[7] = biological target: T1, human BDCA-2 on cells (Jurkat-hBDCA-2 …); assay: cell-based or functional assay; remark: listed apart in the source
[8] = biological target: T2, Human BDCA-2 protein (soluble, Octet analyte) (human, UniProt Q8WTT0 45-213, limits assumed); assay: BLI (Octet Red96e), antibody on anti-human IgG sensor, human BDCA-2 protein in solution
T2 construct: Soluble protein used as analyte in BLI
T2 sequence (looked up): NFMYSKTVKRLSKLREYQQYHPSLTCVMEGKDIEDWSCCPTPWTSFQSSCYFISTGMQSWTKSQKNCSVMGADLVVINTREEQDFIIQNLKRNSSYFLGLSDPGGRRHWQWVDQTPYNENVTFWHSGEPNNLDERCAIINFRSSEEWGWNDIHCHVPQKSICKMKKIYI

[9] = biological target: T1, human BDCA-2 on cells (Jurkat-hBDCA-2 …); assay: flow cytometry on Jurkat-hBDCA-2 cells
[10] = biological target: T2, Human BDCA-2 protein (soluble, Octet …); assay: BLI (Octet Red96e), antibody on anti-human IgG sensor, human BDCA-2 protein in solution; remark: listed apart in the source
[11] = biological target: T1, human BDCA-2 on cells (Jurkat-hBDCA-2 …); assay: cell-based or functional assay; remark: listed apart in the source
[12] = biological target: T1, human BDCA-2 on cells (Jurkat-hBDCA-2 …); assay: flow cytometry on Jurkat-hBDCA-2 cells; remark: listed apart in the source
[13] = biological target: T1, human BDCA-2 on cells (Jurkat-hBDCA-2 …); assay: flow cytometry on Jurkat-hBDCA-2 cells; remark: listed apart in the source

EC50, inhibition of CpGA-induced type I interferon (IFNα) production in human PBMC cells [1]: 0.0132 µg/mL
EC50, inhibition of immune complex-induced type I interferon (IFNα) in human pDC cells [2]: 33.4 ng/mL
EC50, inhibition of immune complex-induced type I interferon (IFNα) in human pDC cells [3]: 6.1 ng/mL
EC50, inhibition of immune complex-induced type I interferon (IFNα) production by human pDC cells [4]: 2.1 ng/mL
EC50 [5]: 0.281 µg/mL
EC50, inhibition of CpGA-induced type I interferon (IFNα) production in human PBMC cells [6]: 0.0025 µg/mL
EC50, inhibition of CpGA-induced type I interferon (IFNα) production in human PBMC cells [7]: 0.0021 µg/mL
Kd [8]: 3.9 nM
EC50 [9]: 0.0704 µg/mL
Kd [10]: 1.9 nM
EC50, inhibition of CpGA-induced type I interferon (IFNα) production in human PBMC cells [11]: 0.0031 µg/mL
EC50 [12]: 0.175 µg/mL
EC50 [13]: 0.224 µg/mL
B1: BIIB059 (antibody)
chain 1: not shown
chain 2: DIQLTQSPSSLSASVGDRVTITCKASQSVDYDGDSYMNWYQQKPGKAPKLLIYAASTLESGVPSRFSGSGSGTDFTLTISSLQPEDFATYYCQQANEDPRTFGQGTKVEIKRTVAAPSVFIFPPSDEQLKSGTASVVCLLNNFYPREAKVQWKVDNALQSGNSQESVTEQDSKDSTYSLSSTLTLSKADYEKHKVYACEVTHQGLSSPVTKSFNRGEC
